By Kd is commonly meant the constant that tells how readily two partners part at equilibrium.

The values that follow come from PMC11785957 (2025).

Where no end group is shown, it is not given here.

The target in this assay is human TLR3 ectodomain (Wuxi Biologics, C-terminal His and Avi tags) (human, UniProt O15455 24-704, biotinylated (for yeast display)). In words: BLI.

B1: minibinder 7 (designed binder)
chain: SAMERYVKVLLRTAELAREAGDPEDVRKALEKAELVARILHNEELKEEIREVEEEL
modifications: also: biotinylated (site not given here)
B1 registered a Kd of 440 nM.

B2: minibinder 8 (designed binder)
chain: SLEEEAERVVEELVKEFNLSETQEIALRRYAEFAAKAGASEEVIEELLRRVAERLS
modifications: also: biotinylated (site not given here)
For B2, the Kd came out at 1200 nM.
